Measured values reported in article PMC10454306, “Genome-Wide Identification of GmSPS Gene Family in Soybean and Expression Analysis in Response to Cold Stress”.

T1: GmICE1 conserved domain (GmICE1-His) (Glycine max, UniProt B8XJY5 275-465)
T1 sequence: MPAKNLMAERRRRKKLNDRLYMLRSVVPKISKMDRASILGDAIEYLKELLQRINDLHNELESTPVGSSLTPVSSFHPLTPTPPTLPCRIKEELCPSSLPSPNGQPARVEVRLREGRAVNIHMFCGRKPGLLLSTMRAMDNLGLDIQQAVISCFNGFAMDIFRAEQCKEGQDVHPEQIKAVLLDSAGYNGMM

B1: GmSPS8 promoter 50 bp probe (-66 to -115) (dsDNA)
DNA 1: AGTCTACACGTGTGTATCTCCATGGCCCACCATTCCTTGCCACGTGTCAA
DNA 2: TTGACACGTGGCAAGGAATGGTGGGCCATGGAGATACACACGTGTAGACT
B2: GmSPS18 promoter 50 bp probe (-68 to -117) (dsDNA)
DNA 1: GTCTACACGTGTGTATCTCCATGCCCCACCATTCCTGCCACGTGGCAGTG
DNA 2: CACTGCCACGTGGCAGGAATGGTGGGGCATGGAGATACACACGTGTAGAC

Biological target: T1, GmICE1 conserved domain (GmICE1-His)
Assay: EMSA; weakened dose-dependently by unlabeled same-sequence competitor; EMSA kit (Thermo Fisher Scientific); buffer, salt, pH and temperature not stated
Conditions: protein: recombinant; tags: His (PET-32a vector); chain copies: 2; label: biotin (forward strand); blunt

Binder | binding result
B1 | binds
B2 | binds
